# From US20160272683A1 (Novo Nordisk, published 2016)
# Numbered stars: 1 amine (or outer) side, 2 acyl side, 3 side chain; on linkers, the order of the positions; unused ones are H or OH. * marks the point of attachment. C20 diacid = O=C(O)CCCCCCCCCCCCCCCCCCC(=O)*; C18 diacid = O=C(O)CCCCCCCCCCCCCCCCC(=O)*; γGlu = O=C(O)[C@H](CCC(=O)[*:2])N[*:1]
# T1: human amylin 3(a) receptor (human calcitonin receptor co-expressed with RAMP-3) (human, UniProt P30988 25-474; O60896 24-148, limits assumed)
# T1 sequence (looked up) 1: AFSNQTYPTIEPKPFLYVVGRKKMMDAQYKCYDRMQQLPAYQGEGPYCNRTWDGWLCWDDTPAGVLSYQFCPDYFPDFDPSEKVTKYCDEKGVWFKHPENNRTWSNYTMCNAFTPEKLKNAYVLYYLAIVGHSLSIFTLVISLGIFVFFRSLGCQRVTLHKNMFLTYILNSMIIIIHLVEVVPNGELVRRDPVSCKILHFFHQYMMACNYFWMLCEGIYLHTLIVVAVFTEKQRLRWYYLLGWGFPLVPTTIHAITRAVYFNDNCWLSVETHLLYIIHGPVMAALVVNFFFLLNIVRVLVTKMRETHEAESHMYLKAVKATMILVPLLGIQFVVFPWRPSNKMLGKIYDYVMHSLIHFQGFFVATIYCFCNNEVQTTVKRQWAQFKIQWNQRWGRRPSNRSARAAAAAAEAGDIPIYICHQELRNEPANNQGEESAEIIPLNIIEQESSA
# T1 sequence (looked up) 2: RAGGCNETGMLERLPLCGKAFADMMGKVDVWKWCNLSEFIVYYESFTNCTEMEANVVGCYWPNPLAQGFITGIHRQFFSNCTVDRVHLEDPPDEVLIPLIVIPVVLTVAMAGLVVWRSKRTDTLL
# T2: human calcitonin receptor (human, UniProt P30988 25-474)
# T2 sequence (looked up): T1 sequence (looked up) 1
# B1: [N-terminal(C18 diacid), 9I]mimylin (peptide)
# peptide: {C18 diacid}-EASELSTAILGRLSAELHELATLPRTETGPESP-NH2
# SMILES: CC[C@H](C)[C@H](NC(=O)[C@H](C)NC(=O)[C@@H](NC(=O)[C@H](CO)NC(=O)[C@H](CC(C)C)NC(=O)[C@H](CCC(=O)O)NC(=O)[C@H](CO)NC(=O)[C@H](C)NC(=O)[C@H](CCC(=O)O)NC(=O)CCCCCCCCCCCCCCCCC(=O)O)[C@@H](C)O)C(=O)N[C@@H](CC(C)C)C(=O)NCC(=O)N[C@@H](CCCNC(=N)N)C(=O)N[C@@H](CC(C)C)C(=O)N[C@@H](CO)C(=O)N[C@@H](C)C(=O)N[C@@H](CCC(=O)O)C(=O)N[C@@H](CC(C)C)C(=O)N[C@@H](Cc1c[nH]cn1)C(=O)N[C@@H](CCC(=O)O)C(=O)N[C@@H](CC(C)C)C(=O)N[C@@H](C)C(=O)N[C@H](C(=O)N[C@@H](CC(C)C)C(=O)N1CCC[C@H]1C(=O)N[C@@H](CCCNC(=N)N)C(=O)N[C@H](C(=O)N[C@@H](CCC(=O)O)C(=O)N[C@H](C(=O)NCC(=O)N1CCC[C@H]1C(=O)N[C@@H](CCC(=O)O)C(=O)N[C@@H](CO)C(=O)N1CCC[C@H]1C(N)=O)[C@@H](C)O)[C@@H](C)O)[C@@H](C)O
# B2: [N-terminal(C20 diacid-gGlu), 4G, 15Q, 21Q, 23Y, 30S, 31G, 32T, 33Y]mimylin (peptide)
# peptide: {C20 diacid-γGlu}-EASGLSTAALGRLSQELHELQTYPRTETGSGTY-NH2
# SMILES: CC(C)C[C@H](NC(=O)CNC(=O)[C@H](CO)NC(=O)[C@H](C)NC(=O)[C@H](CCC(=O)O)NC(=O)CC[C@H](NC(=O)CCCCCCCCCCCCCCCCCCC(=O)O)C(=O)O)C(=O)N[C@@H](CO)C(=O)N[C@H](C(=O)N[C@@H](C)C(=O)N[C@@H](C)C(=O)N[C@@H](CC(C)C)C(=O)NCC(=O)N[C@@H](CCCNC(=N)N)C(=O)N[C@@H](CC(C)C)C(=O)N[C@@H](CO)C(=O)N[C@@H](CCC(N)=O)C(=O)N[C@@H](CCC(=O)O)C(=O)N[C@@H](CC(C)C)C(=O)N[C@@H](Cc1c[nH]cn1)C(=O)N[C@@H](CCC(=O)O)C(=O)N[C@@H](CC(C)C)C(=O)N[C@@H](CCC(N)=O)C(=O)N[C@H](C(=O)N[C@@H](Cc1ccc(O)cc1)C(=O)N1CCC[C@H]1C(=O)N[C@@H](CCCNC(=N)N)C(=O)N[C@H](C(=O)N[C@@H](CCC(=O)O)C(=O)N[C@H](C(=O)NCC(=O)N[C@@H](CO)C(=O)NCC(=O)N[C@H](C(=O)N[C@@H](Cc1ccc(O)cc1)C(N)=O)[C@@H](C)O)[C@@H](C)O)[C@@H](C)O)[C@@H](C)O)[C@@H](C)O
# B3: [N-terminal(C20 diacid-gGlu), des1, 4G, 9V, 23Y, 30S, 31G, 32T, 33Y]mimylin (peptide)
# peptide: {C20 diacid-γGlu}-ASGLSTAVLGRLSAELHELATYPRTETGSGTY-NH2
# SMILES: CC(C)C[C@H](NC(=O)CNC(=O)[C@H](CO)NC(=O)[C@H](C)NC(=O)CC[C@H](NC(=O)CCCCCCCCCCCCCCCCCCC(=O)O)C(=O)O)C(=O)N[C@@H](CO)C(=O)N[C@H](C(=O)N[C@@H](C)C(=O)N[C@H](C(=O)N[C@@H](CC(C)C)C(=O)NCC(=O)N[C@@H](CCCNC(=N)N)C(=O)N[C@@H](CC(C)C)C(=O)N[C@@H](CO)C(=O)N[C@@H](C)C(=O)N[C@@H](CCC(=O)O)C(=O)N[C@@H](CC(C)C)C(=O)N[C@@H](Cc1c[nH]cn1)C(=O)N[C@@H](CCC(=O)O)C(=O)N[C@@H](CC(C)C)C(=O)N[C@@H](C)C(=O)N[C@H](C(=O)N[C@@H](Cc1ccc(O)cc1)C(=O)N1CCC[C@H]1C(=O)N[C@@H](CCCNC(=N)N)C(=O)N[C@H](C(=O)N[C@@H](CCC(=O)O)C(=O)N[C@H](C(=O)NCC(=O)N[C@@H](CO)C(=O)NCC(=O)N[C@H](C(=O)N[C@@H](Cc1ccc(O)cc1)C(N)=O)[C@@H](C)O)[C@@H](C)O)[C@@H](C)O)[C@@H](C)O)C(C)C)[C@@H](C)O
# B4: [N-terminal(C18 diacid-gGlu), des1, 5V, 9V, 10V, 20V, 30S, 31G]mimylin (peptide)
# peptide: {C18 diacid-γGlu}-ASEVSTAVVGRLSAELHEVATLPRTETGSGSP-NH2
# SMILES: CC(C)C[C@H](NC(=O)[C@H](CCCNC(=N)N)NC(=O)CNC(=O)[C@@H](NC(=O)[C@@H](NC(=O)[C@H](C)NC(=O)[C@@H](NC(=O)[C@H](CO)NC(=O)[C@@H](NC(=O)[C@H](CCC(=O)O)NC(=O)[C@H](CO)NC(=O)[C@H](C)NC(=O)CC[C@H](NC(=O)CCCCCCCCCCCCCCCCC(=O)O)C(=O)O)C(C)C)[C@@H](C)O)C(C)C)C(C)C)C(=O)N[C@@H](CO)C(=O)N[C@@H](C)C(=O)N[C@@H](CCC(=O)O)C(=O)N[C@@H](CC(C)C)C(=O)N[C@@H](Cc1c[nH]cn1)C(=O)N[C@@H](CCC(=O)O)C(=O)N[C@H](C(=O)N[C@@H](C)C(=O)N[C@H](C(=O)N[C@@H](CC(C)C)C(=O)N1CCC[C@H]1C(=O)N[C@@H](CCCNC(=N)N)C(=O)N[C@H](C(=O)N[C@@H](CCC(=O)O)C(=O)N[C@H](C(=O)NCC(=O)N[C@@H](CO)C(=O)NCC(=O)N[C@@H](CO)C(=O)N1CCC[C@H]1C(N)=O)[C@@H](C)O)[C@@H](C)O)[C@@H](C)O)C(C)C
# B5: [N-terminal(C20 diacid-gGlu), des1, 9S, 21S, 23Y, 30S, 31G, 33Y]mimylin (peptide)
# peptide: {C20 diacid-γGlu}-ASELSTASLGRLSAELHELSTYPRTETGSGSY-NH2
# SMILES: CC(C)C[C@H](NC(=O)[C@H](CO)NC(=O)[C@H](C)NC(=O)[C@@H](NC(=O)[C@H](CO)NC(=O)[C@H](CC(C)C)NC(=O)[C@H](CCC(=O)O)NC(=O)[C@H](CO)NC(=O)[C@H](C)NC(=O)CC[C@H](NC(=O)CCCCCCCCCCCCCCCCCCC(=O)O)C(=O)O)[C@@H](C)O)C(=O)NCC(=O)N[C@@H](CCCNC(=N)N)C(=O)N[C@@H](CC(C)C)C(=O)N[C@@H](CO)C(=O)N[C@@H](C)C(=O)N[C@@H](CCC(=O)O)C(=O)N[C@@H](CC(C)C)C(=O)N[C@@H](Cc1c[nH]cn1)C(=O)N[C@@H](CCC(=O)O)C(=O)N[C@@H](CC(C)C)C(=O)N[C@@H](CO)C(=O)N[C@H](C(=O)N[C@@H](Cc1ccc(O)cc1)C(=O)N1CCC[C@H]1C(=O)N[C@@H](CCCNC(=N)N)C(=O)N[C@H](C(=O)N[C@@H](CCC(=O)O)C(=O)N[C@H](C(=O)NCC(=O)N[C@@H](CO)C(=O)NCC(=O)N[C@@H](CO)C(=O)N[C@@H](Cc1ccc(O)cc1)C(N)=O)[C@@H](C)O)[C@@H](C)O)[C@@H](C)O
# B6: [N-terminal(C20 diacid-gGlu), des1, 12K, 23Y, 25K, 30S, 31G, 33Y]mimylin (peptide)
# peptide: {C20 diacid-γGlu}-ASELSTAALGKLSAELHELATYPKTETGSGSY-NH2
# SMILES: CC(C)C[C@H](NC(=O)[C@H](C)NC(=O)[C@H](C)NC(=O)[C@@H](NC(=O)[C@H](CO)NC(=O)[C@H](CC(C)C)NC(=O)[C@H](CCC(=O)O)NC(=O)[C@H](CO)NC(=O)[C@H](C)NC(=O)CC[C@H](NC(=O)CCCCCCCCCCCCCCCCCCC(=O)O)C(=O)O)[C@@H](C)O)C(=O)NCC(=O)N[C@@H](CCCCN)C(=O)N[C@@H](CC(C)C)C(=O)N[C@@H](CO)C(=O)N[C@@H](C)C(=O)N[C@@H](CCC(=O)O)C(=O)N[C@@H](CC(C)C)C(=O)N[C@@H](Cc1c[nH]cn1)C(=O)N[C@@H](CCC(=O)O)C(=O)N[C@@H](CC(C)C)C(=O)N[C@@H](C)C(=O)N[C@H](C(=O)N[C@@H](Cc1ccc(O)cc1)C(=O)N1CCC[C@H]1C(=O)N[C@@H](CCCCN)C(=O)N[C@H](C(=O)N[C@@H](CCC(=O)O)C(=O)N[C@H](C(=O)NCC(=O)N[C@@H](CO)C(=O)NCC(=O)N[C@@H](CO)C(=O)N[C@@H](Cc1ccc(O)cc1)C(N)=O)[C@@H](C)O)[C@@H](C)O)[C@@H](C)O
# Target: T1, human amylin 3(a) receptor (human …)
# Assay: cell-based or functional assay
row,Binder,hAmylin-R funct. EC50 (pM)
1,B1,16
2,B2,43
3,B3,67
4,B4,12
5,B5,17
6,B6,51

# Target: T2, human calcitonin receptor
# Assay: cell-based or functional assay
row,Binder,hCTR funct. EC50 (pM)
1,B1,5
2,B2,23
3,B3,70
4,B4,6
5,B5,16
6,B6,37
